Target: SNARE core complex (synaptobrevin-II 1–96, syntaxin-1A 180–262, SNAP-25A 1–83, SNAP-25A 130–206) (rat, UniProt P63045;P32851;P60881-2)
Experiment: native gel or EMSA

B1: synaptotagmin III C2A-C2B, residues 295–569 (domain or fragment)
chain: APCGRISFALRYLYGSDHLVVRILQALDLPAKDSNGFSDPYVKIYLLPDRKKKFQTKVHRKTLNPIFNETFQFSVPLAELAQRKLHFSVYDFDRFSRHDLIGQVVLDNLLELAEQPPDRPLWRDILEGGSEKADLGELNFSLCYLPTAGRLTVTIIKASNLKAMDLTGFSDPYVKASLISEGRRLKKRKTSIKKNTLNPTYNEALVFDVAPESVENVGLSIAVVDYDCIGHNEVIGVCRVGPEAADPHGREHWAEMLANPRKPVEHWHQLVEEKT
binding result: binds
